Test results published in paper PMC7441159, “The metal binding site composition of the cation diffusion facilitator protein MamM cytoplasmic domain impacts its metal responsivity” (Scientific Reports, 2020).

B1: MamM CTD H264E (domain or fragment, Magnetospirillum gryphiswaldense MSR-1, UniProt V6F235 215-318, looked up)
chain: EAVQNRIVEAAERVPGVRGVIHLRARYVGQDIWADMIIGVDPENTVEQAEEICEAVQAAVCGKIRRIESLHVSAEAREIGDTTKPSFSDQPLSFDEVMLSKVDN
notes: MamM cytoplasmic C-terminal domain (CTD), Magnetospirillum gryphiswaldense MSR-1, UniProt Q6NE57 residues 215-318; A thrombin site follows the His tag
B2: MamM CTD H264E-E289H (domain or fragment, Magnetospirillum gryphiswaldense MSR-1, UniProt V6F235 215-318, looked up)
chain: EAVQNRIVEAAERVPGVRGVIHLRARYVGQDIWADMIIGVDPENTVEQAEEICEAVQAAVCGKIRRIESLHVSAHAREIGDTTKPSFSDQPLSFDEVMLSKVDN
notes: MamM cytoplasmic C-terminal domain (CTD), Magnetospirillum gryphiswaldense MSR-1, UniProt Q6NE57 residues 215-318; A thrombin site follows the His tag; also called E289H-H264E
B3: MamM CTD E289H (domain or fragment, Magnetospirillum gryphiswaldense MSR-1, UniProt V6F235 215-318, looked up)
chain: EAVQNRIVEAAERVPGVRGVIHLRARYVGQDIWADMIIGVDPENTVEQAHEICEAVQAAVCGKIRRIESLHVSAHAREIGDTTKPSFSDQPLSFDEVMLSKVDN
notes: as for B1
B4: MamM CTD D249H (domain or fragment, Magnetospirillum gryphiswaldense MSR-1, UniProt V6F235 215-318, looked up)
chain: EAVQNRIVEAAERVPGVRGVIHLRARYVGQDIWAHMIIGVDPENTVEQAHEICEAVQAAVCGKIRRIESLHVSAEAREIGDTTKPSFSDQPLSFDEVMLSKVDN
notes: as for B1
B5: MamM CTD D249N (domain or fragment, Magnetospirillum gryphiswaldense MSR-1, UniProt V6F235 215-318, looked up)
chain: EAVQNRIVEAAERVPGVRGVIHLRARYVGQDIWANMIIGVDPENTVEQAHEICEAVQAAVCGKIRRIESLHVSAEAREIGDTTKPSFSDQPLSFDEVMLSKVDN
notes: as for B1
B6: MamM CTD D249E (domain or fragment, Magnetospirillum gryphiswaldense MSR-1, UniProt V6F235 215-318, looked up)
chain: EAVQNRIVEAAERVPGVRGVIHLRARYVGQDIWAEMIIGVDPENTVEQAHEICEAVQAAVCGKIRRIESLHVSAEAREIGDTTKPSFSDQPLSFDEVMLSKVDN
notes: as for B1
B7: MamM CTD E289D (domain or fragment, Magnetospirillum gryphiswaldense MSR-1, UniProt V6F235 215-318, looked up)
chain: EAVQNRIVEAAERVPGVRGVIHLRARYVGQDIWADMIIGVDPENTVEQAHEICEAVQAAVCGKIRRIESLHVSADAREIGDTTKPSFSDQPLSFDEVMLSKVDN
notes: as for B1
B8: MamM CTD D249H-H285D (domain or fragment, Magnetospirillum gryphiswaldense MSR-1, UniProt V6F235 215-318, looked up)
chain: EAVQNRIVEAAERVPGVRGVIHLRARYVGQDIWAHMIIGVDPENTVEQAHEICEAVQAAVCGKIRRIESLDVSAEAREIGDTTKPSFSDQPLSFDEVMLSKVDN
notes: as for B1
B9: MamM CTD H285D (domain or fragment, Magnetospirillum gryphiswaldense MSR-1, UniProt V6F235 215-318, looked up)
chain: EAVQNRIVEAAERVPGVRGVIHLRARYVGQDIWADMIIGVDPENTVEQAHEICEAVQAAVCGKIRRIESLDVSAEAREIGDTTKPSFSDQPLSFDEVMLSKVDN
notes: as for B1

Target: the molecule itself
Assay: crystal structure; homodimer seen in the crystal; vapor diffusion at 293 K, protein at 20 mg/mL in 10 mM Tris pH 8.0, 150 mM NaCl, 5 mM β-mercaptoethanol and 3.375 mM metal solution (ZnCl2, CdCl2, MnCl2, NiCl2 or CuSO4)

Protein | binding result
B1 | binds
B2 | binds
B3 | binds
B4 | binds
B5 | binds
B6 | binds
B7 | binds
B8 | binds
B9 | binds
